B4: mouse RFPL4, full-length (amino acid residues 1-287) (other, UniProt Q8VH31 1-287, looked up)
chain: MAHLFKEKSNCYFCFRCLESPVYLNCGYICCLKCLDSLEKSPEGDGVLCPTCSVVSLKEDIIHAKQLGALVTKIKNLEPQLNFILTMDQGMKIFQVTMTLDVDTAQNHLIISDDLLSVYYTPQKQARKKCAERFHPSPCVLGSSRFTSGRHYWEVVVGTSKEWDIGICKESINRKKAIHLSEKNGFWTVGVRAKKVYSASTDPLTVLRVNPRLRRVGIFLDMLEKSVSFWDLSDGSHIYTFLEIPDTDPFRPFFSPASSYPDGDQEQVLSICPVTNPGIFGIPVNPQ
notes: One entry is used for all tagged forms; CHO cells: C-terminal FLAG (pCMV-Tag4A) or C-terminal MYC (pCMV-Tag5A); Western blot: endogenous protein in mouse tissue lysates; also called mRFPL4; pGBKT7-RFPL4
B5: cyclin B1, full-length (other)
chain: MALRVTRNTKINAENKAKVSMAGAKRVPVTVTAASKPGLRPRTALGDIGNKVSEELQARVPLKREAKTLGTGKGTVKALPKPVEKVPVCEPEVELAEPEPEPELEHVREEKLSPEPILVDNPSPSPMETSGCAPAEEYLCQAFSDVILAVSDVDADDGADPNLCSEYVKDIYAYLRQLEEEQSVRPKYLQGREVTGNMRAILIDWLIQVQMKFRLLQETMYMTVSIIDRFMQNSCVPKKMLQLVGVTAMFIASKYEEMYPPEIGDFAFVTNNTYTKHQIRQMEMKILRVLNFSLGRPLPLHFLRRASKVGEVDVEQHTLAKYLMELSMLDYDMVHFAPSQIAAGAFCLALKILDNGEWTPTLQHYLSYSEDSLLPVMQHLAKNVVMVNCGLTKHMTVKNKYAASKHAKISTLAQLNCTLVQNLSKAVTKA
notes: 47 kDa; also called Ccnb1; CCNB1

Data set [1] concerns the target B4. Nature of the data set: yeast two-hybrid cotransformation.
For data set [2], the target named is B4. Nature of the data set: yeast two-hybrid mating screen of the ovary cDNA library with pGBKT7-RFPL4 as bait.
The target in data set [3] is T1, HR6A (Ube2a), full-length (mouse, UniProt Q9Z255 1-152).
T1 construct: also called pGADT7-HR6A; MYC-tagged HR6A
Nature of the data set: yeast two-hybrid cotransformant growth/fluorescence assay.
Description: (§1) Briefly, after inoculation, the initial fluorescence was checked and the cells were allowed to grow for 40 hr, and then the fluorescence of an oxygen sensitive dye using the [sequence] Biosensor kit (Clontech) was rechecked. Fluorescence was excited at 485 nm, and emission was read at 630 nm. To find the fold increase in fluorescence, an indication of yeast growth in selection media, the fluorescence intensity at time t=40 hr was divided by the initial intensity recorded at time t=0 hr (Fluorescence(t40)/Fluorescence(t0)). The values shown were the means of triplicate measurements of three independent transformants. Standard deviations were indicated by the error bars.

Data set [4] concerns the molecule itself. Described as above.
Description: as §1
Data set [5] deals with Lysosomal-associated protein 4 (LAPTM4A) (mouse, UniProt Q60961 1-233). Nature of the data set: yeast two-hybrid cotransformation.
For the data set “cyclin B1, full-length”, the target named is B5. Nature of the data set: co-immunoprecipitation of 35S-labelled proteins translated in vitro in reticulocyte lysate.
Protocol: The pGBKT7 (MYC-Tagged) and pGADT7 (HA-Tagged) vectors were used as templates for in vitro transcription/translation using [³⁵S]Met and the TNT T7 Coupled Reticulocyte Lysate System (Promega, Madison, Wis.). In vitro translated proteins were combined at room temperature for 1 h, and reciprocal co-immunoprecipitation experiments were performed using mouse anti-MYC monoclonal or rabbit anti-HA polyclonal antibodies (Clontech).
Epitope tagged bait and prey proteins were transcribed by T7 polymerase from pGBKT7 and pGADT7 templates without DNA binding or transactivation domains. As positive control vectors, pGBKT7-murine p53 (MYC-epitope tagged) and pGADT7-SV40 large T (HA-epitope tagged) were used. ³⁵S-methionine was included in translation mixtures to generate products detectable by autoradiography.
The target of data set [6] is T1, HR6A (Ube2a), full-length. Briefly: anti-FLAG co-immunoprecipitation from lysates of cotransfected CHO cells (FLAG-tagged cyclin B1).

T1 sequence (Q9Z255 whole entry): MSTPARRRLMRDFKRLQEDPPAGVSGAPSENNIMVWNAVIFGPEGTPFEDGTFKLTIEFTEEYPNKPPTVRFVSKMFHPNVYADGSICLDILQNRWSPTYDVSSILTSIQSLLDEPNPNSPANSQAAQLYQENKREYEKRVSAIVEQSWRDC

B1: ATP synthase, H+ transporting, mitochondrial F0 complex, subunit F (ATP5J) (other, mouse, UniProt P97450 1-108, looked up)
chain: MVLQRIFRLSSVLRSAVSVHLKRNIGVTAVAFNKELDPVQKLFVDKIREYKSKRQASGGPVDIGPEYQQDLDRELYKLKQMYGKGEMDTFPTFKFDDPKFEVIDKPQS
notes: Prey from the ovary cDNA library (pGADT7)
With B1, the binding result in data set [1] is on record as “no binding”. Also, the “# of clones” value in data set [2] was 1 clones.

B2: Myosin light chain, alkali, non-muscle (MYLN) (other, mouse, UniProt Q60605 1-151, looked up)
chain: MCDFTEDQTAEFKEAFQLFDRTGDGKILYSQCGDVMRALGQNPTNAEVLKVLGNPKSDEMNVKVLDFEHFLPMLQTVAKNKDQGTYEDYVEGLRVFDKEGNGTVMGAEIRHVLVTLGEKMTEEEVEMLVAGHEDSNGCINYEAFVRHILSG
notes: Prey from the ovary cDNA library (pGADT7); Tags as for the other preys
Regarding B2, the “# of clones” value in data set [2] worked out at 3 clones.

B3: Solute carrier family 25, member 5 (SLC25A5) (other, mouse, UniProt P51881 1-298, looked up)
chain: MTDAAVSFAKDFLAGGVAAAISKTAVAPIERVKLLLQVQHASKQITADKQYKGIIDCVVRIPKEQGVLSFWRGNLANVIRYFPTQALNFAFKDKYKQIFLGGVDKRTQFWRYFAGNLASGGAAGATSLCFVYPLDFARTRLAADVGKAGAEREFKGLGDCLVKIYKSDGIKGLYQGFNVSVQGIIIYRAAYFGIYDTAKGMLPDPKNTHIFISWMIAQSVTAVAGLTSYPFDTVRRRMMMQSGRKGTDIMYTGTLDCWRKIARDEGSKAFFKGAWSNVLRGMGGAFVLVLYDEIKKYT
notes: as for B1
For the molecule B3, the “# of clones” value in data set [2] was found to be 1 clones. Turning to B4, the binding result in data set [3] is “binds”; in data set [4], “no binding”; in data set [5], “no binding”; in the data set with cyclin B1, full-length, “binds”. Regarding B5, the binding result in data set [6] was “binds”.

B6: Cytochrome C oxidase subunit II (MT-CO2) (other, mouse, UniProt P00405 1-227, looked up)
chain: MAYPFQLGLQDATSPIMEELMNFHDHTLMIVFLISSLVLYIISLMLTTKLTHTSTMDAQEVETIWTILPAVILIMIALPSLRILYMMDEINNPVLTVKTMGHQWYWSYEYTDYEDLCFDSYMIPTNDLKPGELRLLEVDNRVVLPMELPIRMLISSEDVLHSWAVPSLGLKTDAIPGRLNQATVTSNRPGLFYGQCSEICGSNHSFMPIVLEMVPLKYFENWSASMI
notes: as for B1
Take B6: the “# of clones” value in data set [2] was 2 clones.

B7: proteasome subunit β, type 1 (PSMB1) (other, mouse, UniProt O09061 1-240, looked up)
chain: MLSTAAYRDVERELGMGPHGSAGPVQLRFSPYAFNGGTVLAIAGEDFSIVASDTRLSEGFSIHTRDSPKCYKLTDKTVIGCSGFHGDCLTLTKIIEARLKMYKHSNNKAMTTGAIAAMLSTILYSRRFFPYYVYNIIGGLDEEGKGAVYSFDPVGSYQRDSFKAGGSASAMLQPLLDNQVGFKNMQNVEHVPLTLDRAMRLVKDVFISAAERDVYTGDALRICIVTKEGIREETVPLRKD
notes: In vitro: HA tagged; CHO cells: C-terminal MYC tag; 25 kDa; also called Proteasome beta type 1 subunit (PSMB1); pGADT7-PSMB1
As to B7, the “# of clones” value in data set [2] stood at 7 clones.

B8: Microfibrillar-associated protein 2 (MFAP2) (other, mouse, UniProt P55002 17-183, looked up)
chain: QGQYDLDPLPPFPDHVQYNHYGDQIDNADYYDYQEVSPRTPEEQFQSQQQVQQEVIPAPTPEPAAAGDLETEPTEPGPLDCREEQYPCTRLYSIHKPCKQCLNEVCFYSLRRVYVVNKEICVRTVCAHEELLRADLCRDKFSKCGVMAVSGLCQSVAASCARSCGGC
notes: as for B1
B8: in data set [1], the binding result is “no binding”. In data set [2], the “# of clones” value worked out at 1 clones.
